# Test results published in article PMC7198388, “Radiohybrid Ligands: A Novel Tracer Concept Exemplified by ^18F- or ^68Ga-Labeled rhPSMA Inhibitors” (Journal of Nuclear Medicine, 2020).
# Like-named read-outs stand apart in the source and are kept apart here.
# Tests used:
# LNCaP cells = assay: Internalization into LNCaP cells, normalized to (125I-I-BA)KuE; type: cell-based, human; conditions: LNCaP cells 1.25 x 10^5/well, 1 h, 37°C, ligand 0.5 nM/well; % of specific internalization of (125I-I-BA)KuE; 68Ga-19F or 18F free-chelator form; mean ± SD, n = 3
# Procedure: Internalization studies were carried out according to a previously published procedure (1). Briefly, LNCaP cells were harvested 24 ± 2 hours before the experiment and seeded in poly -L-lysine coated 24-well plates […]
# After removal of the culture medium, the cells were washed once with 500 µL DMEM -F12 (5% BSA) and left to equilibrate for at least 15 min at 37 °C in 200 µL DMEM-F12 (5% BSA). Each well was treated with either 25 µL of either DMEM-F12 (5% BSA, control) or 25 µL of a 100 µM PMPA (2-(Phosphonomethyl)-pentandioic acid, Tocris Bioscience, Bristol, UK) solution in PBS, for blockade. Next, 25 µL of the radioactive-labelled PSMA inhibitor (5.0 nM in PBS) was added and the cells were incubat ed at 37 °C for 60 min. The experiment was terminated by placing the 24 -well plate on ice for 3 min and consecutive removal of the medium. Each well was carefully washed with 250 µL of ice-cold HBSS. Both fractions from the first steps, representing the amount of free radioligand, were combined. Removal of surface bound activity was accomplished by incubation of the cells with 250 µL of ice-cold PMPA (10 µM in PBS) solution for 5 min […]
# and rinsed again with another 250 µL of ice-cold PBS. The internalized activity was determined by incubation of the cells in 250 µL 1 M aqueous NaOH for at least 10 min. The obtained fractions were combined with those of the subsequent wash step with 250 µL 1 M aqueous NaOH. Each experiment (control and blockade) was performed in triplicate. Free, surface bound and internalized activity was quantified in a γ-counter. All internalization studies were accompanied by external reference studies, using […]
# Data were corrected for non-specific
# [1] = Biodistribution in LNCaP tumor-bearing CB-17 SCID mice; conditions: male, mouse, in vivo, iv, 0.2 nmol, total radioactivity
# From the text: Mice were used for experiments when tumors had grown to a diameter of 5–10 mm (3–6 wk after inoculation).
# Selected organs were removed, weighed, and measured in a γ-counter.
# human serum albumin = molecular target: T1, human serum albumin (Homo sapiens, UniProt P02768); assay: HSA binding by HPLC on Chiralpak HSA column; type: in vitro ADME; conditions: affinity HPLC, 50 mM NH4OAc pH 6.9/isopropanol gradient, r.t., 0.5 mg/mL, calibrated with nine reference substances, natGa-19F form
# T1 construct: purchased Daicel H13H-2433
# Procedure: (§1) with water (10 mL). The purified product was eluted with 50% aqueous ethanol (2 mL), phosphate buffered saline (PBS, 1 mL) and again water (1 mL). After removing ethanol in vacuo, purity of the radiolabelled compounds was determined by radio-HPLC and radio-TLC (ITLC-SG chromatography paper, mobile phase: 0.1 M trisodium citrate and Silica gel 60 RP-18 F254s, mobile phase: 3:2 mixture (v/v) of MeCN in H2O supplemented with 10% of 2 M NaOAc solution and 1% of TFA).
# (§2) 6. Human Serum Albumin (HSA) Binding
# (§3) HSA binding of the PSMA-addressing ligands was determined according to a previously published procedure via HPLC (7). A Chiralpak HSA column (50 x 3 mm, 5 μm, H13H-2433, Daicel, Tokyo, Japan) […]
# (§4) literature, in the range of 13 to 99% (7,8). All substances, including the examined PSMA ligands, were […]
# (§5) final concentration of 0.5 mg/mL.
# (§6) (Northampton, United States).
# (§7) Affinity determinations (IC50)
# (§8) The PSMA affinity (IC50) determinations and synthesis of the radioiodinated reference ligand (((S)-1- […]
# described previously (1). Briefly, the respective ligand was diluted (serial dilution 10-4 to 10-10) in Hank’s balanced salt solution (HBSS, Biochrom). In the case of metal-complexed ligands, the crude reaction mixture containing the purified metal-complexed inhibitor and remaining metal nitrate, was diluted THE JOURNAL OF NUCLEAR MEDICINE • Vol. 61 • No. 5 • May 2020 Wurzer et al.
# PSMA = molecular target: T2, PSMA (Homo sapiens, UniProt Q04609); assay: Competitive binding (IC50) on LNCaP cells with (125I-I-BA)KuE as radioligand; conditions: LNCaP cells 1.5 x 10^5/well, 1 h, 4°C, (125I-I-BA)KuE 0.2 nM/well, HBSS 1% BSA; natGa-19F or 19F free-chelator form; mean ± SD, n = 3
# T2 construct: PSMA-positive LNCaP cells (300265; Cell Lines Service) were cultivated; host or cells: LNCaP human prostate carcinoma cells
# Procedure: Data were corrected for nonspecific binding and normalized to the specific-internalization observed for the radioiodinated reference compound (n = 3). […]
# as §1, §2, §3, §4, §5, §6, §7, §8
# described previously (1). Briefly, the respective ligand was diluted (serial dilution 10-4 to 10-10) in Hank’s balanced salt solution (HBSS, Biochrom). […]
# (1% BSA). […] Quantification of all collected fractions was accomplished in a γ - counter. […]
# [2] = 1 h p.i., i.v. tail vein, mean ± SD, n = 3 (n = 4 for rhPSMA-10), read-out: Biodistribution, Adrenals
# [3] = 1 h p.i., i.v. tail vein, mean ± SD, n = 3 (n = 4 for rhPSMA-10), read-out: Biodistribution, Blood
# [4] = 1 h p.i., i.v. tail vein, mean ± SD, n = 3 (n = 4 for rhPSMA-10), read-out: Biodistribution, Bone
# [5] = 1 h p.i., i.v. tail vein, mean ± SD, n = 3 (n = 4 for rhPSMA-10), read-out: Biodistribution, Heart
# [6] = 1 h p.i., i.v. tail vein, mean ± SD, n = 3 (n = 4 for rhPSMA-10), read-out: Biodistribution, Intestine
# [7] = 1 h p.i., i.v. tail vein, mean ± SD, n = 3 (n = 4 for rhPSMA-10), read-out: Biodistribution, Kidneys
# [8] = 1 h p.i., i.v. tail vein, mean ± SD, n = 3 (n = 4 for rhPSMA-10), read-out: Biodistribution, Liver
# [9] = 1 h p.i., i.v. tail vein, mean ± SD, n = 3 (n = 4 for rhPSMA-10), read-out: Biodistribution, Lung
# [10] = 1 h p.i., i.v. tail vein, mean ± SD, n = 3 (n = 4 for rhPSMA-10), read-out: Biodistribution, Muscle
# [11] = 1 h p.i., i.v. tail vein, mean ± SD, n = 3 (n = 4 for rhPSMA-10), read-out: Biodistribution, Pancreas
# [12] = 1 h p.i., i.v. tail vein, mean ± SD, n = 3 (n = 4 for rhPSMA-10), read-out: Biodistribution, Spleen
# [13] = 1 h p.i., i.v. tail vein, mean ± SD, n = 3 (n = 4 for rhPSMA-10), read-out: Biodistribution, Stomach
# [14] = LNCaP tumor, 1 h p.i., i.v. tail vein, mean ± SD, n = 3 (n = 4 for rhPSMA-10), read-out: Biodistribution, Tumor
# T1 sequence (P02768 25-609): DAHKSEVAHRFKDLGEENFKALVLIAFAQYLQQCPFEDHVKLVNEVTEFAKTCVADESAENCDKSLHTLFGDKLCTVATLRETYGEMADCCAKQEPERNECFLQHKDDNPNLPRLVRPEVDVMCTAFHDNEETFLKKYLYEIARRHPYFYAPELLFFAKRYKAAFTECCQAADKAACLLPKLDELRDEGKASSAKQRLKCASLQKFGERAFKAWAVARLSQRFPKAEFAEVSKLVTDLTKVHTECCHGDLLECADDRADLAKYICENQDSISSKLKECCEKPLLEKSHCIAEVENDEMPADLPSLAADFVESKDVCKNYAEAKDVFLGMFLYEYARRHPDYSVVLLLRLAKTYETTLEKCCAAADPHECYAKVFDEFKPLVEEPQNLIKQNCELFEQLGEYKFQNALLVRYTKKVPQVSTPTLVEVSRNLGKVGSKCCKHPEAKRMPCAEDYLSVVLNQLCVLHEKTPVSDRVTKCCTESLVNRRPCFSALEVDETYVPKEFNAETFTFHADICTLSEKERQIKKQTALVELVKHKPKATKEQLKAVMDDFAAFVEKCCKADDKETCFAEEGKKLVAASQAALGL
# T2 sequence (Q04609 whole entry): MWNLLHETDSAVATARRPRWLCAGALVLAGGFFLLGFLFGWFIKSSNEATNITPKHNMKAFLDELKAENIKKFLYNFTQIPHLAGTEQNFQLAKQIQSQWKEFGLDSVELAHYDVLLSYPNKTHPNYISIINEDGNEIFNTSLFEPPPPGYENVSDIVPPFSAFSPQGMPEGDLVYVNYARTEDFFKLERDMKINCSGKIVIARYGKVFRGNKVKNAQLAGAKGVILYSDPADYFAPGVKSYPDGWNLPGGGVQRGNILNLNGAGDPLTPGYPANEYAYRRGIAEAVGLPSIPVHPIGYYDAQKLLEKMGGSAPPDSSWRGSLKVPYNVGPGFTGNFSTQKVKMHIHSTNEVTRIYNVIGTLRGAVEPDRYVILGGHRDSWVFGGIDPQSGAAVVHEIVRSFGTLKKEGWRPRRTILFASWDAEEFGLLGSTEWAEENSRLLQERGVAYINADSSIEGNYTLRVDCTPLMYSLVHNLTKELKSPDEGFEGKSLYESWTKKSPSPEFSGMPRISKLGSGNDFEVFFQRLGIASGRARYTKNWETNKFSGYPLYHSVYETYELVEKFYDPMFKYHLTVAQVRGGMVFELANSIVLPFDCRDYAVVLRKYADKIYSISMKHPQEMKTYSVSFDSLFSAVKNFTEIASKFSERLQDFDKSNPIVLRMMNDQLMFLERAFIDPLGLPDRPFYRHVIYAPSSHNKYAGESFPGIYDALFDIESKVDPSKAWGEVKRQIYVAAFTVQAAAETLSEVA
SMILES,Internalization (LNCaP cells),"tissue uptake at 1 h [1, 2] [%ID/g]","tissue uptake at 1 h [1, 3] [%ID/g]","tissue uptake at 1 h [1, 4] [%ID/g]","tissue uptake at 1 h [1, 5] [%ID/g]","tissue uptake at 1 h [1, 6] [%ID/g]","tissue uptake at 1 h [1, 7] [%ID/g]","tissue uptake at 1 h [1, 8] [%ID/g]","tissue uptake at 1 h [1, 9] [%ID/g]","tissue uptake at 1 h [1, 10] [%ID/g]","tissue uptake at 1 h [1, 11] [%ID/g]","tissue uptake at 1 h [1, 12] [%ID/g]","tissue uptake at 1 h [1, 13] [%ID/g]","tissue uptake at 1 h [1, 14] [%ID/g]",HSA-binding (human serum albumin) [%],further results
"CC(C)(C)[Si](F)(c1ccc(C(=O)NC[C@@H](C(=O)N[C@H](CCCCNC(=O)CCC(=O)NCCC[C@@H](NC(=O)CC[C@H](NC(=O)N[C@@H](CCC(=O)O)C(=O)O)C(=O)O)C(=O)O)C(=O)O)n2cc(CNC(=O)CCP(=O)(O)CN3CCN(CP(=O)(O)CCC(=O)O)CCN(CP(=O)(O)CCC(=O)O)CC3)nn2)cc1)C(C)(C)C [68/natGa-19/18F-rhPSMA-9, metal not drawn]",180 ± 12 % of reference,2.7 ± 0.2,0.46 ± 0.11,0.18 ± 0.05,0.48 ± 0.17,0.44 ± 0.34,54.9 ± 3,0.42 ± 0.07,0.94 ± 0.2,0.19 ± 0.06,0.39 ± 0.09,25.4 ± 5.2,0.48 ± 0.4,7.2 ± 0.6,95,–
"CC(C)(C)[Si](F)(c1ccc(C(=O)N[C@H](CNC(=O)CCC(C(=O)O)N2CCN(CC(=O)O)CCN(CC(=O)O)CCN(CC(=O)O)CC2)C(=O)N[C@H](CCCCNC(=O)CCC(=O)NCCC[C@@H](NC(=O)CC[C@H](NC(=O)N[C@@H](CCC(=O)O)C(=O)O)C(=O)O)C(=O)O)C(=O)O)cc1)C(C)(C)C (some centres unmarked) [68/natGa-19/18F-rhPSMA-8, metal not drawn]",98 ± 12 % of reference,2.2 ± 0.8,1.7 ± 0.1,0.32 ± 0.07,0.93 ± 0.08,0.35 ± 0.01,82.3 ± 5.9,0.79 ± 0.17,1.3 ± 0.2,0.24 ± 0.02,0.48 ± 0.11,6.3 ± 1.5,0.42 ± 0.11,6.5 ± 0.8,97,–
"CC(C)(C)[Si](F)(c1ccc(C(=O)NC[C@@H](NC(=O)CN2CCN(CC(=O)O)CCN(CC(=O)O)CCN(CC(=O)O)CC2)C(=O)N[C@H](CCCCNC(=O)CCC(=O)NCCC[C@@H](NC(=O)CC[C@H](NC(=O)N[C@@H](CCC(=O)O)C(=O)O)C(=O)O)C(=O)O)C(=O)O)cc1)C(C)(C)C [68/natGa-19F-rhPSMA-10, metal not drawn]",–,–,–,–,–,–,–,–,–,–,–,–,–,–,–,"IC50 (PSMA): 3.8 ± 0.3 nM; tissue uptake at 1 h ([1]; Biodistribution, Adrenals): 2.2 ± 0.3 %ID/g; tissue uptake at 1 h ([1]; Biodistribution, Blood): 1.5 ± 0.3 %ID/g; tissue uptake at 1 h ([1]; Biodistribution, Bone): 0.35 ± 0.13 %ID/g; tissue uptake at 1 h ([1]; Biodistribution, Heart): 0.75 ± 0.13 %ID/g; tissue uptake at 1 h ([1]; Biodistribution, Intestine): 0.47 ± 0.21 %ID/g; tissue uptake at 1 h ([1]; Biodistribution, Kidneys): 77.5 ± 13.6 %ID/g; tissue uptake at 1 h ([1]; Biodistribution, Liver): 0.7 ± 0.2 %ID/g; tissue uptake at 1 h ([1]; Biodistribution, Lung): 1.3 ± 0.2 %ID/g; tissue uptake at 1 h ([1]; Biodistribution, Muscle): 0.33 ± 0.1 %ID/g; tissue uptake at 1 h ([1]; Biodistribution, Pancreas): 0.51 ± 0.03 %ID/g; tissue uptake at 1 h ([1]; Biodistribution, Spleen): 9.4 ± 1.6 %ID/g; tissue uptake at 1 h ([1]; Biodistribution, Stomach): 0.42 ± 0.12 %ID/g; tissue uptake at 1 h ([1]; Biodistribution, Tumor): 11.7 ± 1.9 %ID/g"
